The text below walks through data of the nanobody polyreactivity screen of Harvey et al. (2022).

The nature of this series: yeast display, Sf9 membrane polyspecificity reagent, FACS + sequencing; frameworks hold sequencing errors. The gist of the method:
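Using colony PCR, genes from sorted yeast display clones were amplified, then sequenced on MiSeq at 2 × 250 and filtered by CDR length. The clones had been stained with 10% biotinylated, detergent-solubilized Sf9 membrane reagent for 1 hour at 4 °C and sorted by FACS into low and high (top ~1%) gates on anti-HA and streptavidin fluorescence. Polyreactivity labels come from the gate of origin.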
Take “QVQLVESGGGLVQAGGSLRLSCAASGFTFGENAMGWYRQAPGKERELVAAITGGTDTNYADSVKGRFTISRDNAKNTVYLQMNSLKPEDTAVYYCAAYVPHFAPLGGGGGYDYWGEGTQVTVSS”: the “polyreactivity (PSR sort gate)” value is given as “low polyreactivity”.
The entry for “QVQLVESGGGLVQAGGSLRLTCAASGGTLRYYGMGWYRQAPGKEWEFVAAISWSGDSTYYADSVKGRFTISRDNAKTTVYLQMNSLKPEDTAVYFCAATYYLTYYYGQANHGYDYWGQGTQVTVSS” is “low polyreactivity”; for “QVQLVESGGGLFQAGGSLRLSCAASGRTFWRYAMAWYRQAPGKERELVARISWRGGSTNYADSVKGRFTISRDNAKNTVYLQMNSLKPAETAVYYFNAEVLNYLVFGYQLGYDYWGQGTQGTVSS” it is “low polyreactivity”.
For the sequence “QVQLVESGGGLVQAGGSLLLSCAASGITFYGNAKGWDRQAPGKERELVAAITFSGGITYYADSVKGRFTISRDNAKNTVYLQMNRLKPEDTAVYYCATDPIGGWTRPQRYGDDYWGQGTQLTVSS”, the “polyreactivity (PSR sort gate)” value is “low polyreactivity”.
To “QVQLVESGGGLLQAGGSISLSCAASGFTISPYAMGWYRQAPAKERELVAVISKSSTRTYYADSVKGRFTITRDNAKNTVYLQMNSLKPEDTAVYYCYAGCNFVSGYYYWGQGTQVTVSS” belongs “high polyreactivity”.
To “QVQLVESGRGLVQAGGSLRLSCAASGSIFGFYAMGWYREAPGKESELVAAINSGSTNYADSLKGRFTISRDNAKNTVYLQMNSLKPEDTAVYYCNKDKGVQSYVSSDARYNYWGQGTQVTVSS” belongs “low polyreactivity”; to “QVQLVESGGGLVQAGGSLRLSCAASGIIFLYYAMGWYRQAPGKERELVAAISSGGSTYYADSVKGRFTISRDNAKNTVYLQMNSLKPEDTAVYYCAARPRKSRAYTALGDYWGQGTQVTVSS”, “high polyreactivity”.
The entry for “QVQLVESGGGLVQAGGSLRLSCAASGLIFGSNAMGWYRQAPGKERELVAGISGSGEHYVLRRSVKGRVTISRDNAKNTVYVPMNSLKPEDTAVYYCATYSQSSKGPAGYDYWGQGTHVTVSS” is “high polyreactivity”.
For the sequence “QVQLVEAGGGLVQAGGSLRLSCAASGYIGGNAMGWYRQAPGKERELVANISRSGGSTYYADSVKGRFTISRDNAKNTVYLQMNSLKPEDTAVYYCAAVSYGKYHWGMYYWGQGTQVTVSS”, the “polyreactivity (PSR sort gate)” value is given as “high polyreactivity”.
For “QVQLVESGGGLVQAGGSLRLSCAASGRTFGYNAMGWYRQAPVKERELVAAIRTIGDSTYYADSVKGRFTISRDNAKNTVYLQMNSLKPEDTAVFYCAARKLRSRYDYWGQGTQVTVSS”, the “polyreactivity (PSR sort gate)” value was “high polyreactivity”.
“QVQLVESGVGLVQAGGSLRLSCAASGRTFNSYAMGWYRQAPGKERELVATISSRGGNTFYADSLKGRCTISRDNAKNTVYLQMNSLKPEDTAVYYCAARRGVRKYPSAGYEYWGQGTQVTVSS”: the “polyreactivity (PSR sort gate)” value is “high polyreactivity”.
On to “QVQLVESGGGLVQAGGSLRLSCAASGRTFPYNAMGWYRQAPGKEMELVAAITKSAGRTYYAYSVKGRFTISRDNAKNTVYLQMNSLKPEDTAVYYCNTVTVAYGYTRLYAQYYYWGQGTQVTVSS”, for which the “polyreactivity (PSR sort gate)” value is on record as “high polyreactivity”.
The entry for “QVQLVESGGGLVQAGGSLRLSCAASGLTFPDYAMGWYRQAPGKERELVAAITIDGSTYYADSVKGRFTISRDNAKNTVYLQMNSLTPEDTAVYYCNAQVGVPYAMYYWGQGTQVTVSS” is “low polyreactivity”; for “QVQLVESGGGLVQARGSLRLSCAASGRIFSYYAMGWYRQAPGKERELVATISKSGGSTYYADSVKGRFTISRDNAKNTVYLQMNSLKPEDTALYYCAAVGPYRWYDYWGQGTQVTVSS” it is “high polyreactivity”; for “QVQLVESGGGLVQAGGSLRLSCAASGRIFLRYAMGGYRAAPGKERELVAAISTRGSSTYYADSVKGRFTNSRDNAKNTVYLQMNSLKPEDTAVYYCNKAWGPRRGVNVAFDYWGQGTQVTVSS” it is “low polyreactivity”.
The entry for “QVQLVESGGGLVQAGGSLRLICAASGSIFARYAMGWYRQAPGKERELVAAITGRGGSTYYADSVKGRFTISRDNAKNTVYLQMNSLKPEDTAVYYCNAVGHTSIRRALDILDYWGQGTQVTVSS” is “high polyreactivity”; for “QVQLVESGGGLVQAGGSLRLSCAASGFILRYYAMGWYRQAPGKERELVAAISSGGGTYYADSVKGRFTISRDNAKNTVYLQMNSLKPEDTAVYYCAADYWGLWHWLYTDDDGDYWGQGTQVTVSS” it is “high polyreactivity”; for “QVQLVESGGGLVQAGGSLRLSCAASGTTFTDNAMGWYRQAPGKERELVAAITSGSSTNYADSVKGRFTISRDNAKNTVSLQMNSLKPEDTAVYYCATGQVPQYSTGDYWGQGTQVTVSS” it is “low polyreactivity”.
To “QVQLVESGGGIVQAGGSHRLSCAASGYIFKPNHMGWYRQAPGIDRELVAAISKSRGTTYYADSVKGRFTISRDNAKNTVYLQMNGLKPEDTAVYFCGGVRRYHSYPDGGYWGQGSQVTVSS” belongs “high polyreactivity”; to “QVQLVESGGGLVQAGGSLRLSCAASGYTFRLYAMGWYRQAPVKERELVAAINTSGGRTYYADSVKGRFTISRDNAKNTVYLQMNSLKPEDTAVYYCATDWYWKRADIRPGDYWGQGTQVTVSS”, “low polyreactivity”; to “QVQLVESGGGLVQAGGSLRLSCADSGRIFAWYAMGWYRQAPGKERELVAVITSSDGSTHYADSVKGRFTISRDNAKNTVYLQMNSLKPEDTAVYYCNADSQRPRRRSNYWGQGTQVTVSS”, “low polyreactivity”.
For “QDQLVESGGGLVQAGGSLRLSCAASGRTYASNAMGWYRQAPGKERELVAAITYSGSSTYYADSVKGRFTISRDNAKNTVYLQMNSLKPEDTAVYYCGKGGRRWTYKTWKGYDYWGQGTQVTVSS”, the “polyreactivity (PSR sort gate)” value is “high polyreactivity”.
To “QVQLEESGGGLVQAGGSLRLSSAASGSIFGVNPMGWYRQTPGKERELVARINWSSGRTYYADSVKGRFTISRDNAKNTVYLQMNCLKPEDTAVYYCAAAYWRPGVRFFGPYDYWGQGTQVTVSS” belongs “high polyreactivity”; to “QVQLVESGGGLVQAGGSLRLSGAASGRIFYYNALGWYRPAPGKEREFVAAITWSGTSTNYADSLKGRFTISRDNAKNTVYLQMNSLKPEDTAVYYCAAQLRNSSRTYYRSGYWGQGTQVTVSS”, “high polyreactivity”; to “QVQLVESGGGLVQAGGSLRLSCAASGLIFYDNMGWYRQPPGKERELVAAITVSGGSTYYADSVKGRFTISRDNAKNTVYLQMKSLKPEDTAVYYCARELLSPTYQRWYYYWGQGTQVTVSS”, “low polyreactivity”.
“EVQIVESGGCLVQAGGSLGIRCAASGRIFNIYAMGWYRQAPGKERELFAAISRGGGSKYYADSVKGRFTISRDNAKKTVDLQLNRLKPVDTAVYYCNTDRFPSGRIHRYNYWGQGTQVSVSS”: the “polyreactivity (PSR sort gate)” value is on record as “low polyreactivity”.
On to “QVQLVESGGGLVQAGGSLRLSCAASGITFDGYGMGWYRQAPGKERQLVAAITYSGGRTYYADSVKGRFTISRDIEKNTVYLQMNSLKPEDTAVYYCAVVSRRLYEYDYWGQGTQVTVSS”, for which the “polyreactivity (PSR sort gate)” value is recorded as “high polyreactivity”.
The entry for “QVQLVESGGGLVQAGGSLRLSCAASGSIFAWYGMGWYRQAPGKERELVAAISTAGSTNYADSVKGRFTISRDNAKNSVYLQMNSLKPEDTAVYYCAKKSSWYYPERFDYWGQGTQVTVSS” is “low polyreactivity”.
For the sequence “QVQLVESGGGLVQAGGSLRLSCAASGLIFDCYARGWYRQAPGKERELVAAITYTGGSTYYADSVKGRFTISRDNAKNTDYIQMNSLKPEDTAVYYCAARRQRDRYGYWGQGTQVTVSS”, the “polyreactivity (PSR sort gate)” value is recorded as “high polyreactivity”.
As to “QVQLVESGGGLVQAGGSLRLSCAASGSIFYYNTMGWYRQAPGKERELVAAISWSGGSTSYADSVKWRFTISRDNAKNTVYLQMNSLKPEDTAVYYCNVDYGVHVPPRDYWGQGTQVTVSS”, the “polyreactivity (PSR sort gate)” value was “low polyreactivity”.
For “QVQLVESGGGLVQAGGSLRLSCAASGRTFVGYAMGWDRQAPGKERELVATITSSGRTNYADSVKGRCTISRDNAKNTVYLQMNSLKPEDTAVYYCNKQRTRWYDYWGQGTQVTVSS”, the “polyreactivity (PSR sort gate)” value is reported as “high polyreactivity”.
The entry for “QVQLVESGGGLVQAGGSLRLSCAASGITFSRNAMGWYRQAPGKERELVATITSGGSTNYADSVKGRFTISRDNAKNTVYLQMNSLKPEDTAVYYCNAVWNTLISGRSYDYWGQGTQVTVSS” is “low polyreactivity”; for “QVQLVESGGGLVQAGGSLRLSCPASGSTFSPNAIGWSRQAPGKERELLDAINYSSGSTYYADSVKGRFTISRDNAKNSVYLQMNSLKPEDTAVYYCAVRSYWSSLWTLGDYWGQGTQVTVSS” it is “low polyreactivity”; for “QVQLVESGGGLVQAGGSLRLSCAASGRTLWYYTMGWYRQAPGKERELVADITRGTSTNYADSVKGRFTISRDNAKNTVYLQMNSLKPEDTAVYYCNRAHGRSRYSRDYDSWGQGTQVTVSS” it is “low polyreactivity”.
To “QVQLVESGGGLVQAGGSLRLSCAASGSIFRGYAMGWYRQAPGKERELVAAITSRGGSTYYADSVKGRFTISRDIAKNTVYLQMNSLKPEDTAVYYCNKRVYYPWGQGTQVTVSS” belongs “high polyreactivity”; to “QVQLVESGGGLVQAGGSLRLSCAASGSILRPNAMGWYRQAPGKERELVAAITTSGGSTYYADSVKGRFTISRDNAKNTVYLQMNSLKPEDTAVYYCAARRQRDRYGYWGQGTQVTVSS”, “high polyreactivity”; to “QVQLVESGGGLVQAGGSLRLSCAASGRTLAYYVMGWYRQAPGKERELVAAISGRGGRTNYADSVKGRFTISRDNAKNTVYLQMNSLKPEDTAVYYCAAYRTGYNVDYYYWGQGTQVTVSS”, “high polyreactivity”.
To “QVQLVESGGGLVQAGGSLRLSCAASGGIFIGYAMGWYRQAPGKERELVAAISYSGGSTYYADSVKGRFTISRDNAKNTVYFQMNSLKPEDTALYYCAAQVERKYRWFNSWGQGTQVTVSS” belongs “high polyreactivity”.
As to “QVQLVESGGGLVQAGGSLRLSCAASGSTSPRNAMGWYRQAPGKERELVAAISSGGRTNYADSVKARFTISRDNAKNTDYLQMNSLKREDTAVYYCAAEVQSTYWGQGTQVTVSS”, the “polyreactivity (PSR sort gate)” value is on record as “low polyreactivity”.
The entry for “QVQLVESGGGLVQAGGSLRLSCAASGRIFGKYALGWYRQAPGKERELVAAISGRGGRTYYADSVKGRFTISRDNAKNTVYLQMNSLKPEDTAVYYFANDPRGSRYDYWGQGTQVTVSS” is “high polyreactivity”; for “QVQHVESGGGLVQAGGSLRLSSAPSGRTFAYYARGWYRQAPGKERELVAAISNGGSTYYADSVKGRFTISRDNAKNTVFLQMNSLKPEDTAVYFCNAYYSDLYDYWGQGTQVTVSS” it is “low polyreactivity”.
